Measured values from paper PMC9371698.

Tests used:
[1] = target: canine E-cadherin ectodomain K14E mutant (canine); experiment: single-molecule atomic force microscopy; as −ab, but tip and coverslip incubated with 19A11 Fab and 150 nM free 19A11 Fab in the measurement buffer (+ab); pulling velocity 1 µm/s; pH 7.5, 10 mM Tris-HCl, 100 mM NaCl, 10 mM KCl, 2.5 mM CaCl2
[2] = target: canine E-cadherin ectodomain K14E mutant (canine); experiment: single-molecule atomic force microscopy; biotinylated canine Ecad on streptavidin on PEG tethers on both AFM tip and coverslip; without 19A11 (−ab); pulling velocity 1 µm/s; pH 7.5, 10 mM Tris-HCl, 100 mM NaCl, 10 mM KCl, 2.5 mM CaCl2

- unbinding force (peak of a single Gaussian), with 150 nM 19A11 [1]: 40.3 pN
- unbinding force (peak of a single Gaussian), without 19A11 [2]: 41.2 pN
Substance: canine E-cadherin ectodomain K14E mutant (domain or fragment)
